Results as given in article PMC8036949, “Investigation of the Interaction of Human Origin Recognition Complex Subunit 1 with G-Quadruplex DNAs of Human c-myc Promoter and Telomere Regions”.

Biological target: T1, hORC1(413-511) (Homo sapiens, UniProt Q13415 413-511)
T1 sequence: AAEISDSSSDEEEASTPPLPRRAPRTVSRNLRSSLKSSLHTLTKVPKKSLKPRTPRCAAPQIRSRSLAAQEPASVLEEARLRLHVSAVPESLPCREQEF
Experiment: fluorescence anisotropy; 100 mM KCl; FA: 20 mM HEPES-KOH pH 7.7, 100 mM KCl (or LiCl), 1 mM EDTA, 1 mM DTT, 25 C, 2 uM DNA, 1:1 fit; NMR: same buffer with 10% D2O, 10 uM DSS, 75 uM DNA, 25 C
Conditions: protein: recombinant, tags: N-terminal GST (pGEX-6P-1) removed with PreScission protease

[1] = label: 5'-FAM, G4, multiple folds, 1 strand

B1: wtPu22 (structured_DNA)
DNA: TGAGGGTGGGGAGGGTGGGGAA
Kd [1]: 166 nM

B2: wtPu19 (structured_DNA)
DNA: TGGGGAGGGTGGGGAGGGT
Kd [1]: 45.2 nM

B3: dsDNA (dsDNA)
DNA 1: AAATTTAAAAAAAAAAATAATT
DNA 2: AATTATTTTTTTTTTTAAATTT
Kd (label: 5'-FAM on strand 1, blunt): 1910 nM

B4: mtPu22 (structured_DNA)
DNA: TGAGGGTGGGTAGGGTGGGTAA
Kd (label: 5'-FAM (FA), label in NMR not clear, parallel G4, 1 strand): 310 ± 39.2 nM

B5: mtPu19 (structured_DNA)
DNA: TAGGGAGGGTAGGGAGGGT
Kd (label: 5'-FAM, parallel G4, 1 strand): 446 ± 308 nM

B6: teloDNA (structured_DNA)
DNA: TTGGGTTAGGGTTAGGGTTAGGGA
Kd (label: 5'-FAM (FA), label in NMR not clear, (3+1) G4 in K+, 1 strand): 227 ± 23.6 nM
